Publication PMC11268095

Legend:
Experiment in all cases: BLI; BLItz, Ni-NTA biosensor; phospho-His-SrcKD or variant (58 μM, 5 μL) immobilised as bait for 3 min; rPTPεD1 or variant as analyte, association 120 s, dissociation 120 s; 20 mM Tris-HCl pH 7.5, 50 mM NaCl, 5 mM DTT; 100 μM ATP and 1 μM CSK added before every immobilisation; global fit
[1] = biological target: phospho-His-SrcKD (phosphorylated His-tagged Src kinase domain, Trp 260-Leu 533, K295M/Y416F) (UniProt P00523)
[2] = biological target: phospho-His-SrcKD-D518K (phosphorylated His-tagged Src kinase domain, Trp 260-Leu 533, K295M/Y416F and a change at 518) (UniProt P00523)
[3] = biological target: phospho-His-SrcKD-E486A (phosphorylated His-tagged Src kinase domain, Trp 260-Leu 533, K295M/Y416F/E486A) (UniProt P00523)

| Kd [1] [µM] | koff [1] [s⁻¹] | kon [1] [M⁻¹ s⁻¹] | Kd [2] [µM] | koff [2] [s⁻¹] | kon [2] [M⁻¹ s⁻¹] | Kd [3] [µM] | koff [3] [s⁻¹] | kon [3] [M⁻¹ s⁻¹] | Substance |
| --- | --- | --- | --- | --- | --- | --- | --- | --- | --- |
| 26.2 | 0.0284 | 1080 | 184 | 0.0661 | 360 | 80.4 | 0.0476 | 592 | rPTPεD1 (D1 domain of rPTP epsilon, Ser 101-Thr 400, C335A) (domain or fragment) |
| 352 | 0.0853 | 242 |  |  |  |  |  |  | rPTPεD1-K237D (D1 domain of rPTP epsilon, Ser 101-Thr 400, C335A/K237D) (domain or fragment) |
| 168 | 0.0341 | 202 |  |  |  |  |  |  | rPTPεD1-R220E (D1 domain of rPTP epsilon, Ser 101-Thr 400, C335A/R220E) (domain or fragment) |
